The values that follow come from publication PMC7810988, “Inositol pyrophosphates promote the interaction of SPX domains with the coiled-coil motif of PHR transcription factors to regulate plant phosphate homeostasis” (Nature Communications, 2019).

This data set deals with the molecule itself. Put plainly: SEC-RALS; size-exclusion chromatography with right-angle light scattering; 50 µL of 2–10 mg/mL protein, 20 mM HEPES pH 7.5, 150 mM NaCl, Superdex 200 increase 10/300 GL, 25 °C. (SEC sorts molecules by how far they enter the pores of the column.)

B1: wild-type AtPHR1^222–358 (domain or fragment)
chain: not shown
notes: AtPHR1, Arabidopsis thaliana, residues 222-358 (MYB and CC domains only); also called AtPHR1 MYB-CC; untagged AtPHR1^222–358; not shown: 6xHis, N-terminal, cleaved
For B1, the stoichiometry N (in general, the number of molecules, sites or subunits per partner or assembly) is 2.

B2: AtPHR1^280–360 KHR/A (domain or fragment)
chain: not shown
notes: AtPHR1, Arabidopsis thaliana, residues 280-360, KHR motif mutated to alanine; not shown: 6xHis, N-terminal, cleaved
With B2, the binding result is on record as “binds”.

B3: full-length OsPHR2 (OsPHR2^1-426, wild type) (natural protein)
chain: not shown
notes: OsPHR2, rice MYB-CC transcription factor, residues 1-426, called full-length; also called wild-type OsPHR2; not shown: 8xHis, N-terminal, cleaved; Strep, N-terminal, cleaved; GB1, N-terminal, cleaved
With B3, the “stoichiometry N” value stood at 4.

B4: wild-type AtPHR1^280–360 (pMH-HT construct) (domain or fragment)
chain: not shown
notes: AtPHR1, Arabidopsis thaliana, residues 280-360 (coiled-coil domain); also called AtPHR1 CC; AtPHR^280–360; not shown: 6xHis, N-terminal, cleaved
Consider B4, for which the “stoichiometry N” value was 4.
